Values of other authors, collected in paper PMC10419064.

Target: Cardiac troponin I switch peptide (Homo sapiens) (UniProt P19429)

Substance: Cardiac troponin C regulatory N-domain (from UniProt P63316)
- Kd: < 50 µM
